3 molecules from PMC6224377 (2018) can be followed below.

First the molecules themselves.
B1: GK-5E1 (antibody, V domains shown)
VH: QVTLKESGGDVVQPGRSLRLSCAASGFTFRTYGMHWVRQAPGKGPEWVALIWYDGSKKYYADSVKGRFTISRDNSKNTLYLQMNSLRAEDTAVYYCVRVRFGELYFQHWGQGTLVTVSS
VL: not shown
B2: GK-1E5 (antibody, V domains shown)
VH: EVQLVESGGGVVQPGRSLRLSCAASGFTFRSYGMHWVRQAPGKGLEWVAIIWYDGSKKYYTDSVQGRFTISRDNSKNTLYLQMNSLRAEDTAVYYCARPGIAMTGLDYWGQGTLVTVSS
VL: DIQLTQSPSTLSASVGDRVTITCRASQSISSWLAWYQQKPGKAPKLLIYKASSLESGVPSRFSGSGSGTEFTLTISSLQPDDFATYYCQQYNNYWTFGQGTKVEIK
B3: GK-5A1 (antibody, V domains shown)
VH: QVQLVESGGGVVQPGRSLRLSCAASGFTFSSYGMYWVRQAPGKGLEWVAVIWNDGSNKYYADSVKGRFTISRDNSKNTLYLQMNSLRAEDTAVYYCAREGSGWYDYYYGMDVWGQGTTVTVSS
VL: B2 VL with D1E, Q3V, N93S, E104D

Substitutions are numbered along the chain they refer to.

In the test the target is hROR2-ECD-Twin-Strep (soluble human ROR2 extracellular domain fused to a Twin-Strep-tag) (human, UniProt Q01974 34-403). As to the kind of experiment: SPR.
Sequence of hROR2-ECD-Twin-Strep (soluble human ROR2 extracellular domain fused to a Twin-Strep-tag) (Q01974 34-403): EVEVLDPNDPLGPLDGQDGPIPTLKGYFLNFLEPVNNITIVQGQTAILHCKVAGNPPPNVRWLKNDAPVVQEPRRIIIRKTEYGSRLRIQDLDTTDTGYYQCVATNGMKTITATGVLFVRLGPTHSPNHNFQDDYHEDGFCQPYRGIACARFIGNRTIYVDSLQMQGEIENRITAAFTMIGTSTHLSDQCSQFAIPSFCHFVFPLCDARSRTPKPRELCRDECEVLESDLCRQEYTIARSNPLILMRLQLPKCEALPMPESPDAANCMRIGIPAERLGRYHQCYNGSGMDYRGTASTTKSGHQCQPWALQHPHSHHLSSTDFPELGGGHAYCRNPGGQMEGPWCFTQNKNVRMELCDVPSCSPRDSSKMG
Consider B1, for which the Kd was determined as 2.5 nM.
On to B2, for which the Kd was 80.7 nM.
As for B3, the figure is 61.3 nM.

Usually Kd stands for the constant that tells how readily two partners part at equilibrium. High values mean a looser complex, low ones a tighter complex.
